# According to the supplement of paper PMC12764529:
# ± gives the half width of the 95% confidence interval.
# Key:
# [1] = folding stability dG unfold (combined trypsin and chymotrypsin); higher = more stable
# Outline: (§1)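 Sequencing followed digestion of designed mini-proteins with trypsin and chymotrypsin, each at 11 concentrations in threefold dilutions together with a no-protease condition. The mini-proteins were under 80 residues, had no cysteine, sat in a PA-tagged cDNA display construct, and were kept only if AlphaFold2 dimer inter-PAE was above 15. From the counts, Bayesian fitting gave K50, and unfolding free energy was derived against a sequence-predicted unfolded-state K50 and a shared folded-state K50, per protease or combined.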
# [2] = folding stability dG unfold from chymotrypsin proteolysis; higher = more stable
# Outline: as §1
# [3] = folding stability dG unfold from trypsin proteolysis; higher = more stable
# Outline: as §1
Sequence,folding stability dG unfold [1] [kcal/mol],folding stability dG unfold [2] [kcal/mol],folding stability dG unfold [3] [kcal/mol]
SAGGSAGGSAGGKIEIKTFPDGYVLAKIEFPDEDKALVILAKVKPNPGKVLEAIIRPADSAGGSAGGSAGGS [r10_613_TrMRF],1.38 ± 0.097,1.51 ± 0.062,1.2 ± 0.025
KIVILEPGEEAELPGVKVIPVDGLRIREVEVNGKKILVIEMSEEEIENGNEEELEKLRELAEELGADEVILS [r1_438_TrROS_Hall],1.14 ± 0.26,1.27 ± 0.062,1.13 ± 0.072
SAGGGSSSTTTSTTTTTSTSIEPLPGDREVVVTTTTTTTTTTTTTTPPDGSSTSTTTTTTTTTTTVTLASAG [r5_428_JUSTAS],1.93 ± 0.13,1.45 ± 0.082,2.57 ± 0.23
SAGGSAGGPIVLKFPSPEDLEKAIEIATAHGYEIELNPESGTLVINATGPMLEEFKKIPGLEISSAGGSAGG [r6_724_TrMRF],2.72 ± 0.092,2.66 ± 0.041,2.73 ± 0.12
SAGGSAGGGSMGSVSVSETTTTSTEGSTTTTTTVHTTTVGGTTTTTTTTTTTSPTPGASSPATASAGGSAGG [r6_684_JUSTAS],1.85 ± 0.047,1.71 ± 0.043,2.01 ± 0.065
SAGKKKKKVKKKTVKLTITVKLKPGMTEEEALEKVKELAKALLPPGAKIKEVKFDKETKTVTVEIELTSAGG [r19_81_TrROS_Hall],2.25 ± 0.19,2 ± 0.23,2.15 ± 0.054
SAGGWRLRIHIENPGNGRWITHTFPMPPGNIEKIADDMLEMLPGWKITGVEIVYEPGWITITARVKPKSAGG [r13_196_TrROS],2.74 ± 0.064,2.9 ± 0.035,2.252 ± 0.016
SAGGSMKLTTTTPDGKPFEADVTEYPTFYKITFKVGNKEYTLLANPSTNTVDGNVDGFPFKLKLNPSAGGSA [r2_194_TrMRF],1.25 ± 0.18,1.25 ± 0.18,1.28 ± 0.1
SAGGHHHHHHHHIDGKFRSEEEAKKLKEEIEKELRAKGYTDIEVEVEVKVEEPPPRRPRPGSPAYTLGSAGG [r13_6_JUSTAS],0.955 ± 0.34,0.573 ± 0.11,1.45 ± 0.16
SAGGSANVQVEQTGDGKIKIEFPWYGAEITLNPKKGDIEVEVLPNYKNGQPPPEDEVKNLAKEILDSAGGSA [r15_735_TrROS],0.739 ± 0.13,0.971 ± 0.047,-0.0532 ± 0.092
SAGGSLKIKIRNPDGMPFKIDVVRYPNHIRIKFKFGNKPVAFMIDPESDTINFRIPGWPFQIEIEPSAGGSA [r2_194_TrROS],3.26 ± 0.15,3.39 ± 0.092,2.96 ± 0.096
SMKEKALEKAKEKAEEIKKKYSNVKVKVEVKVEITPKGEIKITYKVVIEKPEKEKPYWVKYPNGPWKKIGSA [r9_82_JUSTAS],1.5 ± 0.55,1.86 ± 0.54,1.2 ± 0.24
SAGGSAGSFVNLGPEESEGVIVVTYYNEDGTTTTATYTYFPSPKTVSSNGPVTVPPNYKLSVSPLLSAGGSA [r15_198_JUSTAS],0.818 ± 0.067,1.13 ± 0.054,0.165 ± 0.051
SEPWELVEERELPPNAVITFPNGEKLEIDPEKARVRVWRRPDSVRVLVVLKDGTVLEFEFYAPPRVTDDDSA [r9_348_TrMRF],2.69 ± 0.1,2.58 ± 0.033,2.62 ± 0.074
SAGGMVIVVKTKEEAKKALEELLKKLFPDLKIKKIEIKEVEVEVKKKDGKKVKKKKFIVVKIEIEKESAGGS [r16_267_TrROS_Hall],3.05 ± 0.13,3.38 ± 0.13,2.61 ± 0.1
SAGGSAGGMILIKNEDGSLYLIEVETVTVTVKVKLPEELKELLKGIKPGDTITVTVTKVRIVKLSAGGSAGG [r6_907_TrROS_Hall],4.32 ± 0.17,4.58 ± 0.11,3.79 ± 0.15
SKWTIDIDITYYPEYGVITVTIRYPNSWEQARFDVRSFIHEAGMPIKLEDIEIEQVEGWYEITYTIRIPPSA [r9_164_TrROS],3.78 ± 0.39,3.88 ± 0.13,3.49 ± 0.19
